This is an account of results in article doi:10.1101/285569.

For one data set, the target named is Bruno (UniProt O02374 1-604). In words: EMSA.
Data set [1] has as its target T1, Pumilio RNA-binding domain (UniProt P25822 1091-1426).
T1 sequence: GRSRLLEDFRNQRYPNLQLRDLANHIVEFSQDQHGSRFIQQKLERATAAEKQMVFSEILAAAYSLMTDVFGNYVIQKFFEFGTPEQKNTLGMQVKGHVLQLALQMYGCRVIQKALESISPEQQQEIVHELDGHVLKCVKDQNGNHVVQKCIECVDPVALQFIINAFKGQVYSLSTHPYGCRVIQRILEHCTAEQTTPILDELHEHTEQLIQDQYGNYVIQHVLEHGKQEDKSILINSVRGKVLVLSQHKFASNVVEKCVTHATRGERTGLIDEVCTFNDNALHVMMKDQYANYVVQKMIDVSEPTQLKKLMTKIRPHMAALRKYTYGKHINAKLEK
In words: EMSA. (Mobility shift assays separate free from complexed probe on a gel.)

With UAAUCAAGAUACAUAUAUGC (ssRNA) [Scramble RNA], the binding result (with Bruno; in data set [1]) was “no binding” each time.
